# Reference: the array DNA melting data of Ke et al.
# Assay: melting temperature; melt of duplexes
# Conditions: sodium 0.0675 M; strand 1 µM
row,Substance,Tm
1,CGACGTGCATTATGTGCTG+CAGCACATTAAGCACGTCG ((((((((.(.((((((((+)))))))).).)))))))),50.3 °C
2,CGACGTGCTTTATGTGCTG+CAGCACATGGGGCACGTCG ((((((((...((((((((+))))))))...)))))))),51 °C
3,CGACGTGCGCCATGTGCTG+CAGCACATGACGCACGTCG (((((((((.(((((((((+))))))))).))))))))),59.3 °C
4,CGACGTGCGCGATGTGCTG+CAGCACATGTCGCACGTCG (((((((((..((((((((+))))))))..))))))))),55.5 °C
5,CGACGTGCGCCATGTGCTG+CAGCACATTGCGCACGTCG ((((((((((.((((((((+)))))))).)))))))))),59.3 °C
6,CGACGTGCGCGATGTGCTG+CAGCACATGTTGCACGTCG ((((((((...((((((((+))))))))...)))))))),50.5 °C
7,CGACGTGCGCCATGTGCTG+CAGCACATTCCGCACGTCG (((((((((..((((((((+))))))))..))))))))),50.9 °C
8,CGACGTGCGTCATGTGCTG+CAGCACATTACGCACGTCG ((((((((((.((((((((+)))))))).)))))))))),57.4 °C
9,CGACGTGCGAAATGTGCTG+CAGCACATAGAGCACGTCG ((((((((...((((((((+))))))))...)))))))),56.2 °C
10,CGACGTGCTTTATGTGCTG+CAGCACATTAAGCACGTCG ((((((((((.((((((((+)))))))).)))))))))),55.2 °C
11,CGACGTGCGCAATGTGCTG+CAGCACATCCCGCACGTCG (((((((((..((((((((+))))))))..))))))))),52.5 °C
12,CGACGTGCCGTATGTGCTG+CAGCACATGTGGCACGTCG (((((((((..((((((((+))))))))..))))))))),55.7 °C
13,CGACGTGCGGAATGTGCTG+CAGCACATAATGCACGTCG ((((((((...((((((((+))))))))...)))))))),52 °C
14,CGACGTGCAGTATGTGCTG+CAGCACATTGAGCACGTCG ((((((((...((((((((+))))))))...)))))))),49.1 °C
15,CGACGTGCTGTATGTGCTG+CAGCACATGTTGCACGTCG ((((((((...((((((((+))))))))...)))))))),50.4 °C
16,CGACGTGCGCTATGTGCTG+CAGCACATCCCGCACGTCG (((((((((..((((((((+))))))))..))))))))),52.1 °C
17,CGACGTGCCTGATGTGCTG+CAGCACATTCGGCACGTCG (((((((((..((((((((+))))))))..))))))))),54.7 °C
18,CGACGTGCTGCATGTGCTG+CAGCACATATTGCACGTCG ((((((((...((((((((+))))))))...)))))))),49.3 °C
19,CGACGTGCCGTATGTGCTG+CAGCACATGCGGCACGTCG ((((((((((.((((((((+)))))))).)))))))))),62.4 °C
20,CGACGTGCACGATGTGCTG+CAGCACATCATGCACGTCG (((((((((.(((((((((+))))))))).))))))))),55.3 °C
21,CGACGTGCTCCATGTGCTG+CAGCACATCCAGCACGTCG (((((((((..((((((((+))))))))..))))))))),48.7 °C
22,CGACGTGCCCCATGTGCTG+CAGCACATAAAGCACGTCG ((((((((...((((((((+))))))))...)))))))),47.7 °C
23,CGACGTGCTATATGTGCTG+CAGCACATGGCGCACGTCG ((((((((...((((((((+))))))))...)))))))),48.5 °C
24,CGACGTGCCCCATGTGCTG+CAGCACATTTTGCACGTCG ((((((((...((((((((+))))))))...)))))))),46.6 °C

row,Substance,Tm
1,CGACGTGCTACATGTGCTG+CAGCACATTGAGCACGTCG (((((((((..((((((((+))))))))..))))))))),52.8 °C
2,CGACGTGCAAAATGTGCTG+CAGCACATATTGCACGTCG ((((((((((.((((((((+)))))))).)))))))))),54.7 °C
3,CGACGTGCGCCATGTGCTG+CAGCACATAAGGCACGTCG ((((((((...((((((((+))))))))...)))))))),48.6 °C
4,CGACGTGCCTAATGTGCTG+CAGCACATGACGCACGTCG ((((((((.(.((((((((+)))))))).).)))))))),46.4 °C
5,CGACGTGCTCCATGTGCTG+CAGCACATGGTGCACGTCG ((((((((.((((((((((+)))))))))).)))))))),58.9 °C
6,CGACGTGCATGATGTGCTG+CAGCACATAATGCACGTCG ((((((((((.((((((((+)))))))).)))))))))),56 °C
7,CGACGTGCGCGATGTGCTG+CAGCACATCTTGCACGTCG ((((((((..(((((((((+)))))))))..)))))))),53.9 °C
8,CGACGTGCAGCATGTGCTG+CAGCACATGCAGCACGTCG ((((((((.((((((((((+)))))))))).)))))))),60.8 °C
9,CGACGTGCTTCATGTGCTG+CAGCACATCTCGCACGTCG ((((((((...((((((((+))))))))...)))))))),47 °C
10,CGACGTGCGACATGTGCTG+CAGCACATGGAGCACGTCG ((((((((..(((((((((+)))))))))..)))))))),63.5 °C
11,CGACGTGCCTCATGTGCTG+CAGCACATTCTGCACGTCG ((((((((...((((((((+))))))))...)))))))),47.1 °C
12,CGACGTGCCACATGTGCTG+CAGCACATTGCGCACGTCG ((((((((...((((((((+))))))))...)))))))),50.5 °C
13,CGACGTGCCGAATGTGCTG+CAGCACATCTAGCACGTCG ((((((((...((((((((+))))))))...)))))))),50.1 °C
14,CGACGTGCCGCATGTGCTG+CAGCACATTCAGCACGTCG ((((((((.(.((((((((+)))))))).).)))))))),48.9 °C
15,CGACGTGCGTGATGTGCTG+CAGCACATCGCGCACGTCG (((((((((.(((((((((+))))))))).))))))))),63.6 °C
16,CGACGTGCCCGATGTGCTG+CAGCACATTAAGCACGTCG ((((((((...((((((((+))))))))...)))))))),49.5 °C
17,CGACGTGCGAAATGTGCTG+CAGCACATCGAGCACGTCG ((((((((...((((((((+))))))))...)))))))),55.9 °C
18,CGACGTGCTAGATGTGCTG+CAGCACATCTAGCACGTCG (((((((((((((((((((+))))))))))))))))))),63.6 °C
19,CGACGTGCTTTATGTGCTG+CAGCACATCGAGCACGTCG (((((((((..((((((((+))))))))..))))))))),51.3 °C
20,CGACGTGCCCTATGTGCTG+CAGCACATTGTGCACGTCG ((((((((.(.((((((((+)))))))).).)))))))),47.8 °C
21,CGACGTGCACAATGTGCTG+CAGCACATTCTGCACGTCG (((((((((.(((((((((+))))))))).))))))))),51.7 °C
22,CGACGTGCCTTATGTGCTG+CAGCACATCTAGCACGTCG ((((((((...((((((((+))))))))...)))))))),48.1 °C
23,CGACGTGCAATATGTGCTG+CAGCACATTAAGCACGTCG ((((((((...((((((((+))))))))...)))))))),50.1 °C
24,CGACGTGCCCGATGTGCTG+CAGCACATAGGGCACGTCG ((((((((((.((((((((+)))))))).)))))))))),61.5 °C

row,Substance,Tm
1,CGACGTGCCATATGTGCTG+CAGCACATTTAGCACGTCG ((((((((.(.((((((((+)))))))).).)))))))),49.7 °C
2,CGACGTGCACGATGTGCTG+CAGCACATCCCGCACGTCG ((((((((..(((((((((+)))))))))..)))))))),49.9 °C
3,CGACGTGCTAAATGTGCTG+CAGCACATCTGGCACGTCG ((((((((.(.((((((((+)))))))).).)))))))),51.1 °C
4,CGACGTGCCTTATGTGCTG+CAGCACATATCGCACGTCG ((((((((..(((((((((+)))))))))..)))))))),49.9 °C
5,CGACGTGCGATATGTGCTG+CAGCACATTGAGCACGTCG ((((((((...((((((((+))))))))...)))))))),57.2 °C
6,CGACGTGCCCCATGTGCTG+CAGCACATAAGGCACGTCG (((((((((..((((((((+))))))))..))))))))),52.7 °C
7,CGACGTGCATCATGTGCTG+CAGCACATGGTGCACGTCG (((((((((.(((((((((+))))))))).))))))))),60.1 °C
8,CGACGTGCTGGATGTGCTG+CAGCACATTAAGCACGTCG (((((((((..((((((((+))))))))..))))))))),54.8 °C
9,CGACGTGCGATATGTGCTG+CAGCACATTCCGCACGTCG (((((((((..((((((((+))))))))..))))))))),53.8 °C
10,CGACGTGCACAATGTGCTG+CAGCACATCCTGCACGTCG (((((((((..((((((((+))))))))..))))))))),47.1 °C
11,CGACGTGCCAGATGTGCTG+CAGCACATATGGCACGTCG ((((((((((.((((((((+)))))))).)))))))))),59.9 °C
12,CGACGTGCGGCATGTGCTG+CAGCACATAGGGCACGTCG ((((((((...((((((((+))))))))...)))))))),49.5 °C
13,CGACGTGCCTCATGTGCTG+CAGCACATTACGCACGTCG ((((((((.(.((((((((+)))))))).).)))))))),46.4 °C
14,CGACGTGCAGCATGTGCTG+CAGCACATCCGGCACGTCG ((((((((.(.((((((((+)))))))).).)))))))),49 °C
15,CGACGTGCCCAATGTGCTG+CAGCACATTCTGCACGTCG ((((((((..(((((((((+)))))))))..)))))))),49.9 °C
16,CGACGTGCGAAATGTGCTG+CAGCACATAGCGCACGTCG (((((((((..((((((((+))))))))..))))))))),55.4 °C
17,CGACGTGCTTAATGTGCTG+CAGCACATTGAGCACGTCG (((((((((.(((((((((+))))))))).))))))))),56.9 °C
18,CGACGTGCGGTATGTGCTG+CAGCACATCGAGCACGTCG ((((((((...((((((((+))))))))...)))))))),54 °C
19,CGACGTGCGCTATGTGCTG+CAGCACATTGTGCACGTCG ((((((((.(.((((((((+)))))))).).)))))))),51.9 °C
20,CGACGTGCTTTATGTGCTG+CAGCACATAACGCACGTCG ((((((((.((((((((((+)))))))))).)))))))),53.6 °C
21,CGACGTGCTTTATGTGCTG+CAGCACATGCTGCACGTCG ((((((((...((((((((+))))))))...)))))))),46.2 °C
22,CGACGTGCCCAATGTGCTG+CAGCACATCGCGCACGTCG ((((((((.(.((((((((+)))))))).).)))))))),48.7 °C
23,CGACGTGCCGTATGTGCTG+CAGCACATTTGGCACGTCG (((((((((..((((((((+))))))))..))))))))),55.2 °C
24,CGACGTGCTAAATGTGCTG+CAGCACATCCCGCACGTCG ((((((((...((((((((+))))))))...)))))))),48.9 °C
